Reference: US20120191435A1 (SHANGHAI NATIONAL ENGINEERING RESEARCH CENTER OF ANTIBODY …, published 2012)

T1: biotin labeled antigen peptide (a fragment of the CD20 extracellular domain) (human, UniProt P11836 163-187, limits assumed, biotin labeled (position not given))
T1 construct: domain: a fragment of the CD20 extracellular domain; also called short peptide CD20; CD20 antigen
T1 peptide (looked up): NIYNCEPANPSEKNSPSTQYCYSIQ


Assays:
[1] = molecular target: T1, biotin labeled antigen peptide (a …); assay: Biacore SPR, biotin-CD20 peptide on SA chip, antibody in flow
Description: (§1) A SA chip was balanced in 50 μl/min of PBS solution for 30 minutes at 25° C. and then activated three times with activation solution of 1M NaCl and 50 mM NaOH, for 1 minute per time. […] Then the chip was balanced in 50 μl/min of PBS solution for 10 minutes. The balanced SA chip was blocked with 0.04% of biotin solution. The antibody was diluted to five concentrations by double dilution. The samples were loaded at the flow rate of 50 μl/min for 75 seconds and dissociated with PBS solution for 10 minutes.

[2] = molecular target: T1, biotin labeled antigen peptide (a …); assay: Biacore SPR, biotin-CD20 peptide on SA chip; ratio against un-mutated C2B8 (WT)
Description: as §1

[3] = molecular target: T1, biotin labeled antigen peptide (a …); assay: Biacore SPR, biotin-CD20 peptide on SA chip; ratio against commercially available rituximab
Description: as §1

Row | Kd [1] [nM] | KdWT/Kdmutant [2] | KdRitu/Kdmutant [3] | Binder
1 | 44.1 |  |  | anti-CD20 chimeric antibody Rituximab (C2B8), un-mutated, expressed in CHO-K1 cells in this filing (antibody, human IgG1, kappa, V domains shown, Whole chimeric IgG1 kappa; also called WT; un-mutated C2B8) VH: QVQLQQPGAELVKPGASVKMSCKASGYTFTSYNMHWVKQTPGRGLEWIGAIYPGNGDTSYNQKFKGKATLTADKSSSTAYMQLSSLTSEDSAVYYCARSTYYGGDWYFNVWGAGTTVTVSA VL: QIVLSQSPAILSASPGEKVTMTCRASSSVSYIHWFQQKPGSSPKPWIYATSNLASGVPVRFSGSGSGTSYSLTISRVEAEDAATYYCQQWTSNPPTFGGGTKLEIKR
2 |  | 1.75 | 2.23 | C2B8 antibody mutant Rmut4 (H102YR) (antibody, V domains shown) VH: QVQLQQPGAELVKPGASVKMSCKASGYTFTSYNMHWVKQTPGRGLEWIGAIYPGNGDTSYNQKFKGKATLTADKSSSTAYMQLSSLTSEDSAVYYCARSTYRGGDWYFNVWGAGTTVTVSA VL: QIVLSQSPAILSASPGEKVTMTCRASSSVSYIHWFQQKPGSSPKPWIYATSNLASGVPVRFSGSGSGTSYSLTISRVEAEDAATYYCQQWTSNPPTFGGGTKLEIK
3 |  | 3.96 | 5.04 | C2B8 antibody mutant Rmut7 (H102YK) (antibody, V domains shown) VH: QVQLQQPGAELVKPGASVKMSCKASGYTFTSYNMHWVKQTPGRGLEWIGAIYPGNGDTSYNQKFKGKATLTADKSSSTAYMQLSSLTSEDSAVYYCARSTYKGGDWYFNVWGAGTTVTVSA VL: QIVLSQSPAILSASPGEKVTMTCRASSSVSYIHWFQQKPGSSPKPWIYATSNLASGVPVRFSGSGSGTSYSLTISRVEAEDAATYYCQQWTSNPPTFGGGTKLEIK
4 |  | 0.61 | 0.78 | C2B8 antibody mutant Rmut2 (H55NR) (antibody, V domains shown) VH: QVQLQQPGAELVKPGASVKMSCKASGYTFTSYNMHWVKQTPGRGLEWIGAIYPGRGDTSYNQKFKGKATLTADKSSSTAYMQLSSLTSEDSAVYYCARSTYYGGDWYFNVWGAGTTVTVSA VL: QIVLSQSPAILSASPGEKVTMTCRASSSVSYIHWFQQKPGSSPKPWIYATSNLASGVPVRFSGSGSGTSYSLTISRVEAEDAATYYCQQWTSNPPTFGGGTKLEIK
5 |  | 6.08 | 7.73 | C2B8 antibody mutant Rmut3 (H57DE) (antibody, V domains shown) VH: QVQLQQPGAELVKPGASVKMSCKASGYTFTSYNMHWVKQTPGRGLEWIGAIYPGNGETSYNQKFKGKATLTADKSSSTAYMQLSSLTSEDSAVYYCARSTYYGGDWYFNVWGAGTTVTVSA VL: QIVLSQSPAILSASPGEKVTMTCRASSSVSYIHWFQQKPGSSPKPWIYATSNLASGVPVRFSGSGSGTSYSLTISRVEAEDAATYYCQQWTSNPPTFGGGTKLEIK
6 |  | 1.85 | 2.35 | C2B8 antibody mutant Rmut5 (H102YS) (antibody, V domains shown) VH: QVQLQQPGAELVKPGASVKMSCKASGYTFTSYNMHWVKQTPGRGLEWIGAIYPGNGDTSYNQKFKGKATLTADKSSSTAYMQLSSLTSEDSAVYYCARSTYSGGDWYFNVWGAGTTVTVSA VL: QIVLSQSPAILSASPGEKVTMTCRASSSVSYIHWFQQKPGSSPKPWIYATSNLASGVPVRFSGSGSGTSYSLTISRVEAEDAATYYCQQWTSNPPTFGGGTKLEIK
7 |  | 0.54 | 0.69 | C2B8 antibody mutant Rmut1 (H55NE) (antibody, V domains shown) VH: QVQLQQPGAELVKPGASVKMSCKASGYTFTSYNMHWVKQTPGRGLEWIGAIYPGEGDTSYNQKFKGKATLTADKSSSTAYMQLSSLTSEDSAVYYCARSTYYGGDWYFNVWGAGTTVTVSA VL: QIVLSQSPAILSASPGEKVTMTCRASSSVSYIHWFQQKPGSSPKPWIYATSNLASGVPVRFSGSGSGTSYSLTISRVEAEDAATYYCQQWTSNPPTFGGGTKLEIK
8 |  | 1.84 | 2.34 | C2B8 antibody mutant Rmut6 (H102YT) (antibody, V domains shown) VH: QVQLQQPGAELVKPGASVKMSCKASGYTFTSYNMHWVKQTPGRGLEWIGAIYPGNGDTSYNQKFKGKATLTADKSSSTAYMQLSSLTSEDSAVYYCARSTYTGGDWYFNVWGAGTTVTVSA VL: QIVLSQSPAILSASPGEKVTMTCRASSSVSYIHWFQQKPGSSPKPWIYATSNLASGVPVRFSGSGSGTSYSLTISRVEAEDAATYYCQQWTSNPPTFGGGTKLEIK
